This note sets out measurements from paper PMC3949714 (PLoS ONE, 2014).

Where no end group is shown, it is not given here.

In data set [1] the target is T1, mu-opioid receptors (MOR) (Mus musculus, UniProt P42866).
T1 construct: FLAG; expressed in transfected cells
Description: cell-based. The data set is classed as cell-based, murine.

Data set [2] is described as follows: RP-HPLC retention time (read by the paper as polarity). The data set is classed as physicochemical. The conditions noted are these: water/acetonitrile gradient with 0.1% formic acid, MS TIC detection. How it is done:
An Agilent binary HPLC composing of an Agilent 1100 LC pump, an Agilent 1100 well plate auto-sampler (Agilent Technologies, Santa Clara, CA, USA) and a Jupiter 5 μ (C4, 300 A, 150×2.00 mm, 5 μ) RP HPLC column (Phenomenex, Torrance, CA, USA) were used for separation. The mobile phase flow rate was 200 µl/min and the volume of injection was 20 µL. The separations were performed using a binary solvent gradient; water (Milli-Q; Millipore Corporation, Bedford, MA) which contained 0.1% v/v formic acid was used as the solvent A and acetonitrile (Merck KGaA, Darmstadt, Germany) which contained 0.1% v/v formic acid (Nuplex industries Pty Ltd. (NSW, Australia) was used as the solvent B. The chromatographic separation was achieved using the gradient shown in Table 1.
An API 3000 tandem mass spectrometer equipped with a turbo ion spray was used as the detector. Detection was performed in total ion current (TIC) mode (MS1/Q1), in positive mode, within the range 200–3000 amu. The data were acquired and processed by Analyst 1.5 software (Applied Biosystems, Foster city, CA, USA). Mass spectra were obtained using: declustering potential (DF) of 16 V, focusing potential (FP) of 120 V, Entrance potential (EP) of 10 V, and Ion spray voltage (IS) of 5000 V. Structure identity of fragments was performed using the respective mass/charge (m/z) values of each peptide metabolite. Direct flow injections were carried out using Model 11 plus Harvard Syringe pump (Harvard Apparatus Inc, Holliston, MA, USA).

A short description of data set [3]: Biotransformation in homogenised inflamed tissue at pH 5.5 (LC/MS, mean residence time). To be noted: for MRT: 120 min, AUMC/AUC of LC/MS peak intensity.
In data set [4] the target is T2, delta-opioid receptors (DOR).
T2 construct: expressed in transfected cells
Format: cell-based. To be noted: read-out: IC50 for the inhibition of forskolin induced cAMP in HEK-DOP cells.

The mark [5] stands for this setting: incubation of BE 1-11, Jupiter C4 column.
Setting [6] is: incubation of BE 1-11 (115 µM) in rat inflamed tissue homogenate, MES pH 5.5, 37°C.
Where [7] appears, read: incubation of BE 1-13, Jupiter C4 column.
Where [8] appears, read: incubation of BE 1-17, Jupiter C4 column.
Where [9] appears, read: incubation of BE 1-13 (115 µM) in rat inflamed tissue homogenate, MES pH 5.5, 37°C.
[10] abbreviates: incubation of BE 1-17 (115 µM) in rat inflamed tissue homogenate, MES pH 5.5, 37°C.
[11] abbreviates: incubation of BE 1-31, Jupiter C4 300 A column, 200 µl/min.
Setting [12] is: incubation of BE 1-31 (115 µM) in rat inflamed tissue homogenate, MES pH 5.5, 37°C.
Where [13] appears, read: formed during incubation of BE 1–31, pH 5.5, 37°C.
The mark [14] stands for this setting: rat inflamed tissue homogenate, MES pH 5.5, 37°C, 115 µM peptide, LC/MS.

T1 sequence (P42866 whole entry): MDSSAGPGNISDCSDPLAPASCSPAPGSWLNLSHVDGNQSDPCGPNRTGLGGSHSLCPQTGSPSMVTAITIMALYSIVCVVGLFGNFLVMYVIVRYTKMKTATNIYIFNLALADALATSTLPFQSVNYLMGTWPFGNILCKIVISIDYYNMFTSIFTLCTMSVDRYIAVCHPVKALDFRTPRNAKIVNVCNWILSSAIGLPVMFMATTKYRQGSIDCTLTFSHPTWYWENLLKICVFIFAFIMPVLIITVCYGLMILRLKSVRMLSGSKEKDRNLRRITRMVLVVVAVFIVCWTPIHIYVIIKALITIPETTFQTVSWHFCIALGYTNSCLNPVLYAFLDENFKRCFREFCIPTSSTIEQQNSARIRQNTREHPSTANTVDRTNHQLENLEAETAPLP

For the compound `C=CCN1C[C@H](C)N([C@H](c2ccc(C(=O)N(CC)CC)cc2)c2cccc(OC)c2)C[C@H]1C` [SNC 80, 4-[(R)-[(2S,5R)-4-allyl-2,5-dimethylpiperazin-1-yl](3-methoxyphenyl)methyl]-N,N-diethylbenzamide, reference compound], in data set [1] (Table 2 as titled, 20000 cells/well, FSK 100 µM, 0.3 nM to 1 µM in half log intervals, 30 min, Alphascreen, one-site fit, at least three independent experiments, read-out: IC50 for the inhibition of forskolin induced cAMP in HEK-MOP cells), the IC50 (in general, the concentration that gives 50% inhibition) is 8.1 nM.
As for “BE 4-11: beta-endorphin fragment, residues 4-11 (FMTSEKSQ; Beta-endorphin; UniProt P01189 240-247, looked up, fragment)”, in data set [2] (setting [5]), the Rt came to 13.8 min. Also, the MRT in data set [3] (setting [6]) amounted to 22.7.
Take “BE 4-13: beta-endorphin fragment, residues 4-13 (FMTSEKSQTP; Beta-endorphin; UniProt P01189 240-249, looked up, fragment)”: the Rt in data set [2] (setting [7]) was 15.7 min. In addition, in data set [2] (setting [8]), the RT is reported as 15.67 min. The MRT in data set [3] (setting [9]) worked out at 18.
In the case of “BE 5-16: beta-endorphin fragment, residues 5-16 (MTSEKSQTPLVT; Beta-endorphin; UniProt P01189 241-252, looked up, fragment)”, the RT in data set [2] (setting [8]) is 16.92 min. In data set [3] (setting [10]), this compound had an MRT of 13.2.
In data set [2] (setting [11]), “BE 5-24: beta-endorphin fragment, residues 5-24 (MTSEKSQTPLVTLFKNAIIK; Beta-endorphin; UniProt P01189 241-260, looked up, fragment)” showed an RT of 19 min. In addition, the MRT in data set [3] (setting [12]) was determined as 25.1.
In the case of “BE 6-16: beta-endorphin fragment, residues 6-16 (TSEKSQTPLVT; Beta-endorphin; UniProt P01189 242-252, looked up, fragment)”, the RT is 16 min in data set [2] (setting [8]) and 18.4 min in data set [2] (setting [11]). The MRT in data set [3] (setting [12]) came out at 22.4.
Compound “BE 6-31: beta-endorphin fragment, residues 6-31 (TSEKSQTPLVTLFKNAIIKNAYKKGE; Beta-endorphin; UniProt P01189 242-267, looked up, fragment)” returned an RT in data set [2] (setting [11]) of 24.7 min. The same compound displayed an MRT in data set [3] (setting [12]) of 40.
With “BE 10-16: beta-endorphin intermediate fragment, residues 10-16 (SQTPLVT; Beta-endorphin; UniProt P01189 246-252, looked up, fragment)”, in data set [2] (setting [11]), the RT came to 19 min. Moreover, in data set [3] (setting [13]), the “Time observed as metabolite in homogenised inflamed tissue” value was “over 60 minutes”. The same compound showed an MRT in data set [3] (setting [12]) of 44.3.
Consider “BE 10-18: beta-endorphin fragment, residues 10-18 (SQTPLVTLF; Beta-endorphin; UniProt P01189 246-254, looked up, fragment)”, for which, in data set [2] (setting [11]), the RT stood at 28.2 min. Moreover, the MRT in data set [3] (setting [12]) was 13.3.
On the same counts, the results for “BE 10-24: beta-endorphin fragment, residues 10-24 (SQTPLVTLFKNAIIK; Beta-endorphin; UniProt P01189 246-260, looked up, fragment)” are 28.2 min and 11.3.
In data set [2] (setting [11]), “BE 10-28: beta-endorphin fragment, residues 10-28 (SQTPLVTLFKNAIIKNAYK; Beta-endorphin; UniProt P01189 246-264, looked up, fragment)” showed an RT of 26.9 min. The MRT in data set [3] (setting [12]) is 32.3.
On the same counts, the results for “BE 10-31: beta-endorphin fragment, residues 10-31 (SQTPLVTLFKNAIIKNAYKKGE; Beta-endorphin; UniProt P01189 246-267, looked up, fragment)” are 24.9 min and 29.
As for “BE 15-24: beta-endorphin fragment, residues 15-24 (VTLFKNAIIK; Beta-endorphin; UniProt P01189 251-260, looked up, fragment)”, the RT in data set [2] (setting [11]) amounted to 22.44 min. Also, the MRT in data set [3] (setting [12]) was determined as 25.2.
In the case of “BE 18-31: beta-endorphin fragment, residues 18-31 (FKNAIIKNAYKKGE; Beta-endorphin; UniProt P01189 254-267, looked up, fragment)”, in data set [2] (setting [11]), the RT is given as 16.1 min. Moreover, the MRT in data set [3] (setting [12]) was found to be 18.1.
The compound “BE 19-30: beta-endorphin fragment, residues 19-30 (KNAIIKNAYKKG; Beta-endorphin; UniProt P01189 255-266, looked up, fragment)” displayed an RT in data set [2] (setting [11]) of 14.3 min. Moreover, in data set [3] (setting [12]), the MRT was 72.2.
Compound “BE 19-31: beta-endorphin C-terminal fragment, residues 19-31 (KNAIIKNAYKKGE; Beta-endorphin; UniProt P01189 255-267, looked up, fragment)” showed an RT in data set [2] (setting [11]) of 13.67 min. This compound also returned an MRT in data set [3] (setting [12]) of 80.
On the same counts, the results for “BE 20-24: beta-endorphin intermediate fragment, residues 20-24 (NAIIK; Beta-endorphin; UniProt P01189 256-260, looked up, fragment)” are 16.1 min and 98.
The compound “BE 20-27: beta-endorphin intermediate fragment, residues 20-27 (NAIIKNAY; Beta-endorphin; UniProt P01189 256-263, looked up, fragment)” registered an RT in data set [2] (setting [11]) of 16.1 min. The MRT in data set [3] (setting [12]) was found to be 97.1.
Take “BE 20-28: beta-endorphin intermediate fragment, residues 20-28 (NAIIKNAYK; Beta-endorphin; UniProt P01189 256-264, looked up, fragment)”: in data set [2] (setting [11]), the RT was 16.1 min. The compound further gave an MRT in data set [3] (setting [12]) of 87.6.
On the same counts, the results for “BE 20-29: beta-endorphin fragment, residues 20-29 (NAIIKNAYKK; Beta-endorphin; UniProt P01189 256-265, looked up, fragment)” are 14.3 min and 8.4.
Consider “BE 20-31: beta-endorphin C-terminal fragment, residues 20-31 (NAIIKNAYKKGE; Beta-endorphin; UniProt P01189 256-267, looked up, fragment)”, for which the RT in data set [2] (setting [11]) is reported as 14.3 min. This compound also yielded an MRT in data set [3] (setting [12]) of 72.2.
Turning to YGGFMTSEK [BE 1–9], the figures for the RT in data set [2] (setting [8]) and in data set [2] (setting [11]) were 18.13 min and 20.2 min, respectively. Further, the “Agonist character at MOR (extent of cAMP inhibition)” value in data set [1] was “partial agonist”. The MRT in data set [3] (setting [10]) stood at 28; in data set [3] (setting [12]) it was 11.4.
On to YGGFMTSEKSQ [BE 1–11], for which the Rt in data set [2] (setting [5]) and in data set [2] (setting [7]) was 17.4 min in each case. Further, the RT in data set [2] (setting [8]) was determined as 17.58 min; in data set [2] (setting [11]), 19.96 min. The concentration for half-maximal inhibition (IC50) in data set [4] is 18 nM. In addition, in data set [1], the “Effect of naloxone pre-treatment on cAMP inhibition through MOR” value is reported as “inhibited by naloxone”. For the same compound, the MRT stood at 11 in data set [3] (setting [6]), 10.5 in data set [3] (setting [9]), 17.2 in data set [3] (setting [10]) and 57.8 in data set [3] (setting [12]). Further, the “Incubation period after which the peptide was undetectable” value in data set [3] (setting [14]) is 30 min.
On to YGGFMTSEKSQTP [BE 1–13], for which the Rt in data set [2] (setting [7]) amounted to 18.4 min; in data set [2] (incubation of BE 1-13, Jupiter C4 column, listed as BE 1-13), 18.5 min. The RT in data set [2] (setting [8]) was found to be 18.6 min; in data set [2] (incubation of BE 1-17, Jupiter C4 column, listed as BE 1-13), 18.78 min; in data set [2] (setting [11]), 20.9 min. In data set [4], the IC50 worked out at 59 nM. In addition, the “Effect of naloxone pre-treatment on cAMP inhibition through MOR” value in data set [1] was “inhibited by naloxone”. Further, in data set [3] (setting [13]), the “Time present as metabolite within inflamed tissue homogenates” value is listed as “over 1 hour”. The MRT in data set [3] (setting [9]) is listed as 8.3; in data set [3] (setting [10]), 21.7; in data set [3] (setting [12]) it was 44. For the same compound, the “Time for which the peptide was detected in inflamed tissue homogenates” value in data set [3] (setting [14]) is reported as 30 min.
